Measured values reported in the supplement of paper PMC12042874.
± gives the uncertainty stated by the source.

Assay: amyloid nucleation score (Sup35N fusion, yeast selection) (log enrichment); library NNK1; higher = more nucleation; inactive = no reads after selection
Method in brief: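 Nucleation score: DiMSum log enrichment of output over input reads, centred on the mode score of non-aggregating sequences. Only sequences with at least 100 input reads were kept. Reads came from Illumina sequencing of plasmid inserts before and after 7 days of growth at 30°C without adenine and uracil, in psi-negative yeast expressing Sup35N fused to peptides of 20 random codons after 24 hours of induction with 100 μM copper sulfate.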

Substance	amyloid nucleation score
HSDVHNCFLLCRCTGYCLYS	3.96 ± 0.16
LSMPGTTCIFYYRLFLVLGE	-0.043 ± 0.31
YLCSSVPLSEHNLILSITWD	inactive
LFDVYN	-0.549 ± 0.49
ELIFFDDHFTDWYLCFNNFG	-1.29 ± 1.4
SMVYAYAAIILGWWNWGRGC	0.003 ± 1.1
TSDNFCQCHCSFFQSWFGG	-0.27 ± 0.63
FMVKHSDDRGYLCFLGIEKV	0.209 ± 0.93
RSWKNKFYPVCFSKSGSRF	-0.215 ± 0.41
PMTKCMLSSLGWCAHVPVRE	0.369 ± 0.52
DSQGFMRVISLMFVDGSLLA	0.591 ± 0.54
IPKVIGWFTVVTTGVVVNIS	-1.59 ± 2.7
VFYGCVDESCDLNRLGSVSY	-0.101 ± 0.54
PAVFCW	0.387 ± 0.48
LAPNDGGRALSVDMRGWCDW	inactive
CNIMRSLWLGAIVCMSTMYC	-0.396 ± 0.73
WSNGF	1.89 ± 0.45
STNVGRILMCVQLSLWKLN	0.227 ± 0.29
LVKWGCQLSVEFVRFNTGFQ	1.74 ± 0.094
WHSIADLNLVDYEICVNFFY	-0.75 ± 1.5
KLDVSLKKYLD	0.368 ± 0.31
VCRPYVRLSPGGM	-1.27 ± 2.7
IDMTEMKIRWV	-0.208 ± 0.27
ASAWGLGYEFPWSRSYSAKT	-0.209 ± 0.9
SWSEVGWTHCMSWASHI	-1.14 ± 2.4

Substance	amyloid nucleation score
VRLKVKCIMIH	0.962 ± 0.72
ITPDVGSGTFEV	0.022 ± 1.1
EFEWNLFPICNTNMI	1.66 ± 0.8
EDWHVDSFGFSKTSMGTRRL	2.49 ± 0.14
TRYMICSL	0.121 ± 0.6
ANLCSCSTTMA	0.236 ± 0.39
LCNLGMLRLSGMENRINRVG	1.29 ± 0.6
DFARQSSHPETWSSGDLSHS	0.239 ± 0.96
LWVFGCCIVRMIR	0.047 ± 0.74
YMKMMYAIYCLWLRHYSMLF	inactive
KVGLSMKYRPYS	2.29 ± 0.22
EMFCC	0.554 ± 0.59
CWMTGWTYPVY	3.85 ± 0.15
IGHGTHG	0.282 ± 0.49
FNRNRIGGEIVMSNNYMYHS	1.58 ± 0.33
IPVVVV	0.014 ± 0.24
AAVCRSILVF	0.674 ± 0.88
LSFETRRWMYYIS	0.446 ± 0.24
MVSNNNLYPF	inactive
FHVDDHKWRLPDGELSRTAM	-0.341 ± 0.78
YVESGTFTDPRFWVSFAVCF	0.791 ± 0.54
MIIPD	1.14 ± 0.34
CLNGMQPHKWFGMCVWVCPC	-0.212 ± 0.58
HCCFTGRKGYSRFAVLSCST	1.11 ± 0.48
LLMYKKCRQWGCGNVSCSFD	7.086 ± 0.065

Substance	amyloid nucleation score
IFTTSNQSEGRGVPAGNPNL	inactive
GSTENTVYRRGEFGELVWKC	-0.311 ± 0.44
VCLVFVFDVSTVPNICCYAT	-0.189 ± 0.37
HTYDGHSVSGCTGHVMFLSS	-0.021 ± 0.41
YCASFRINVIFV	3.79 ± 0.086
FLKLFHLRGFLYG	inactive
GFSRQSTWMCRKWSTNPRTW	1.15 ± 0.34
VTMVGRSLKLLMTYETFNTW	-0.21 ± 0.24
NHGLYTVFWGCCPWFSQNLF	7.894 ± 0.073
AVFDSKLFLQSWVASTGIRV	inactive
EYSIIYCICH	3.08 ± 0.14
KEGLRDGLLCRYQTCAG	0.091 ± 0.48
VTRFSAGTITVLTRDWRANC	-0.486 ± 1.6
YMRGGQDFYYVQDIVVFLLL	4.24 ± 0.094
VLVVTALLSRV	1.67 ± 0.22
DLFRSSLSPVSLLHSDMDMG	0.12 ± 0.41
GRFRSTTVWFWVLDVLYGCS	0.547 ± 0.29
YHGGYGSSHMWRFVRCIKAY	0.168 ± 0.27
ARGYAGVRRLVGYR	0.133 ± 0.56
FLLHWFEYGIPNVYRSRRD	inactive
SCTFKMMMGSVLL	4.45 ± 0.067
CIVYFSCLMYHWILDC	0.422 ± 0.65
MSALTGQKPLVMVGGLCAVG	0.449 ± 0.55
QWGNLFLWKTIAESLLRD	1.47 ± 0.67
AVFLVRAPSTRGLARMVDLA	inactive

Substance	amyloid nucleation score
CTLKWLTF	1.34 ± 0.43
IRGTLT	-1.42 ± 2.1
YVPPSMMLNGGDPEYSVGLK	0.082 ± 0.89
KVHTGTSTRLKLYMHSTLRT	0.454 ± 0.25
SHIRSWVRSAHAWYIWHGKT	0.466 ± 0.44
DMVYYNEIPKGRYQHPAG	0.593 ± 0.56
RGSCMIVGKACS	-0.37 ± 0.33
EAVRWRGRNVRNLFWDN	0.03 ± 0.35
ENDVNDLRSPLDNQYLSRLP	inactive
YYLEGSNALYIKVDRILRLL	-0.187 ± 0.54
SYIDHYITKSDAVWRVSIEQ	-0.176 ± 0.35
VLFLDI	0.793 ± 0.58
HVHRIN	-0.717 ± 1.1
FFRIEATSVSLSPAYRLEDR	2.59 ± 0.28
MLHWLKLIRTIGRFIRFFRC	inactive
RAAALRRKRDD	0.203 ± 0.42
WSKYVESVRVETVGQVFQLV	-0.009 ± 0.51
DDWIVRHCFNCLSVWMYLRY	0.257 ± 0.9
QLESMIYCVVSFYAAGVNFE	-0.468 ± 1.9
DDKLLRVLFLMCSPYYTIIG	-0.065 ± 0.22
LFCDPAFGKHLCFRNAFCWF	0.255 ± 0.23
EQHCNAMGVSRSGPWCDGEV	0.051 ± 0.85
FLVCSFNYGAAPFFGGFMHY	0.679 ± 0.23
GLRQYF	-0.317 ± 0.84
IGTGLLS	0.451 ± 0.62

Substance	amyloid nucleation score
TFSTGFGGIISLACVRRQYL	0.049 ± 0.88
VGSQKCLYCGVAYSEGVWIY	inactive
SCERW	-0.111 ± 0.45
SSVYVRLVMGF	1.77 ± 0.61
CVLVNVNNDQSWWR	5.04 ± 0.076
LCFLWIGVP	-0.241 ± 1
CMSLYRGFLTPEWNIFVWLA	0.514 ± 0.61
RHVDRLVLWHEDSVAPGETN	0.394 ± 0.49
RNYCDPGAFGVWGVTGHHRV	-0.816 ± 0.92
SESKGHHKCRRALLYRGM	0.418 ± 1.2
SWVGRAVVEYSARARASTES	-0.327 ± 0.33
RWMSYHIVPRRGSYCVTTLT	0.492 ± 0.85
LFKNRVRLLLHERSLLPVII	0.469 ± 0.68
NVLWGCQPNFVWDAWLRTEH	0.777 ± 0.73
YNRLKSIV	1.51 ± 0.72
INLMGSPS	-0.708 ± 0.28
FLTQPFAFIVLCGSKYTSSD	-0.463 ± 0.48
KGANADAYGRGYNAVFMLEW	-1.39 ± 1.2
FIISRD	-0.028 ± 0.34
SRYGWGTRSESRQLTSLSCT	-0.304 ± 1.3
NIVDVKPQKRETIRWLWIIF	-0.232 ± 0.2
SKKSSRDLNSTSGRR	-0.808 ± 1.4
INVNRG	0.239 ± 0.56
FLQLLGGLRSYKTRVCMWCV	-2.21 ± 2.7
TRCCLFDRSSIYPSYCNEEA	-0.123 ± 0.9

Substance	amyloid nucleation score
CFRYVCIILMSVLMNYNFVY	-0.05 ± 0.2
QSVKTQGVVCAVSIYFGGCS	2.39 ± 0.23
DVSNTVFFTLLYLLGPRCRS	0.721 ± 0.38
PCIVKYRNSGLHNYRIRLNR	-1.12 ± 0.97
DVSLNVNLYVHRFMCHQVPI	0.515 ± 0.28
NWCTNTRSIFTIRGTDAGTL	-0.721 ± 1.1
YFCQWH	inactive
YFFITRAEVSDVVLLLCVCC	-0.158 ± 0.82
YRVSNVNFSFATFFTHAPVR	1.76 ± 0.16
SMSPTDICYWCLYHSAYIRD	1.55 ± 0.3
MFFVFSYSRS	1.52 ± 0.28
QTSDTNWGVLFTVYFLCQDM	-0.059 ± 0.67
IYNTYPTRRLRLQRGYYSME	-0.607 ± 1.5
YSRMQVAIYMYLVE	3.19 ± 0.17
VSSVGKMPDALRVKAKWIFM	0.141 ± 0.29
GYHSFGLVHEGETGK	inactive
CFSLLNYSCFSCIDLFHPLY	5.23 ± 0.084
LLMAIVCIMIRQGFLRHVSP	-0.086 ± 0.56
TGSQLWHIIFRC	0.214 ± 0.24
FCVTNPWS	0.308 ± 0.58
FNLRKRRA	0.205 ± 0.38
SLVPVYI	0.167 ± 0.35
LFDSLEAVYRSYGKSWACYI	-1.63 ± 0.9
SLRSPWDRCSFRHFLPFFTM	-0.735 ± 0.69
KRLTMVVRGKLSVLHP	3.74 ± 0.12

Substance	amyloid nucleation score
KYPSKSSELSGYEDSRNFVG	0.806 ± 0.62
GILFWSGL	1.07 ± 0.66
GCGFS	-0.126 ± 0.4
QTVGGRFSSFY	inactive
SRFWGER	0.801 ± 0.62
WGLSQSLCHSRNNLHNWISG	0.207 ± 0.53
MRFVIQVLYTGGTKKSSHLM	1.16 ± 0.79
VEVKSCIWDFGCNQRGYGDG	5.32 ± 0.079
TSDRVVPFGSISWKGCSRVR	-0.981 ± 0.85
FTTDVERSVLFEVNLWSNGW	5.33 ± 0.066
FTAWP	-0.242 ± 0.3
KLSRDFRGFYRT	inactive
EGQCSNIVSKLAPSKIPYLR	-0.853 ± 0.66
KRSKN	1.37 ± 0.8
KSGVRYNRGRKYASTQ	-0.302 ± 0.39
DFIKYAFSWE	-0.347 ± 0.36
LIRTLANWLSIPHVLI	-0.351 ± 0.3
KGAIPFSSDCGGLSGLILYC	0.301 ± 0.54
YTCYIVKGLVVLTVACGG	-0.225 ± 0.98
ITGPIEGGVTK	-0.118 ± 0.8
CRHLFNWASWSTFTRIS	0.375 ± 0.23
LFGVFGFISVVSFSP	-0.455 ± 1.7
SHGRMCQLEYWSLRKGRGAG	0.229 ± 0.59
NKKNSSLNHSL	-0.077 ± 0.43
